For this experiment, the target named is T1, FcγRIIIa extracellular domain with C-terminal His tag (human, UniProt P08637 17-208).
T1 construct: extracellular domain; also called FcgRIIIa; 3a; not shown: His tag at the C terminus
Briefly: SPR relative binding; GpH7-B3/GpL16-k0 = 100. On the procedure:
Analysis of interaction between objective antibody and the FcγR was carried out using Biacore T100 (GE Healthcare). HBS-EP+ (GE Healthcare) was used as the running buffer, and the measurement temperature was set to 25° C. Chips produced by immobilizing the antigen peptide by the amine coupling method to a Series S Sencor Chip CM5 (GE Healthcare), or alternatively, chips produced by allowing preliminarily biotinylated antigen peptides to interact with and immobilize onto a Series S Sensor Chip SA (certified) (GE Healthcare) were used. Antibodies of interest were captured onto an antigen peptide-immobilized chip, and allowed to interact to each FcγR diluted with running buffer. To regenerate and repeatedly use the chip, the antibodies captured on the chip were washed off by reacting 10 mM glycine-HCl, pH 1.5.
The FcγR-binding activity of each antibody was assessed primarily using as an indicator the FcγR-binding activity and dissociation constant for FcγR.

T1 sequence (P08637 17-208): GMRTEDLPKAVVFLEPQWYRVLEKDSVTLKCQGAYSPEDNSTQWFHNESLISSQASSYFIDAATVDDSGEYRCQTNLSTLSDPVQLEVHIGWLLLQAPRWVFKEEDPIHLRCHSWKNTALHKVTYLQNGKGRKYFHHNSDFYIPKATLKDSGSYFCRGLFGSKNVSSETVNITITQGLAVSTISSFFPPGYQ

B1: GpH7-B3 variant I332_01G/GpL16-k0 (antibody, human IgG1, kappa)
heavy: not shown
light: DIVMTQSPLSLPVTPGEPASISCQASESLVHSNRNTYLHWYLQKPGQSPQLLIYKVSNRFSGVPDRFSGSGSGTDFTLKISRVEAEDVGVYYCSQNTHVPPTFGQGTKVEIERTVAAPSVFIFPPSDEQLKSGTASVVCLLNNFYPREAKVQWKVDNALQSGNSQESVTEQDSKDSTYSLSSTLTLSKADYEKHKVYACEVTHQGLSSPVTKSFNRGEC
notes: also called Ho Ab I332_01G
Turning to B1, the Ho/Con_3a was 104 % of control.

B2: GpH7-B3 variant S337_15Y/GpL16-k0 (antibody, human IgG1, kappa)
heavy: not shown
light: B1 light
notes: also called Ho Ab S337_15Y
As for B2, the Ho/Con_3a was 99 % of control.

B3: GpH7-B3 variant K334_01G/GpL16-k0 (antibody, human IgG1, kappa)
heavy: not shown
light: B1 light
notes: also called Ho Ab K334_01G
In the case of B3, the Ho/Con_3a is 104 % of control.

B4: GpH7-B3 variant S324_02A/GpL16-k0 (antibody, human IgG1, kappa)
heavy: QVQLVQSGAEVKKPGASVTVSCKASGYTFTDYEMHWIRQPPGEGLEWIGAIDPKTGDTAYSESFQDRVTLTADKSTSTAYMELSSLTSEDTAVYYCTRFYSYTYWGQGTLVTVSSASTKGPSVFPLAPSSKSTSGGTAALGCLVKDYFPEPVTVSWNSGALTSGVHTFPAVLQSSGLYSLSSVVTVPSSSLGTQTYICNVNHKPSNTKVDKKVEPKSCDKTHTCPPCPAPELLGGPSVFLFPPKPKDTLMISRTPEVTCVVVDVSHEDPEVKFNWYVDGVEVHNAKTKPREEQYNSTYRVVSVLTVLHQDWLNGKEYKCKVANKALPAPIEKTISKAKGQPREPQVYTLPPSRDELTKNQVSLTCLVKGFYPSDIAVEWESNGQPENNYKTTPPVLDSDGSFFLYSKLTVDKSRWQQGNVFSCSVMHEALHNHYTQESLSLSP
light: B1 light
notes: also called Ho Ab S324_02A
For the molecule B4, the Ho/Con_3a was 99.8 % of control.

B5: GpH7-B3 variant S337_10E/GpL16-k0 (antibody, human IgG1, kappa)
heavy: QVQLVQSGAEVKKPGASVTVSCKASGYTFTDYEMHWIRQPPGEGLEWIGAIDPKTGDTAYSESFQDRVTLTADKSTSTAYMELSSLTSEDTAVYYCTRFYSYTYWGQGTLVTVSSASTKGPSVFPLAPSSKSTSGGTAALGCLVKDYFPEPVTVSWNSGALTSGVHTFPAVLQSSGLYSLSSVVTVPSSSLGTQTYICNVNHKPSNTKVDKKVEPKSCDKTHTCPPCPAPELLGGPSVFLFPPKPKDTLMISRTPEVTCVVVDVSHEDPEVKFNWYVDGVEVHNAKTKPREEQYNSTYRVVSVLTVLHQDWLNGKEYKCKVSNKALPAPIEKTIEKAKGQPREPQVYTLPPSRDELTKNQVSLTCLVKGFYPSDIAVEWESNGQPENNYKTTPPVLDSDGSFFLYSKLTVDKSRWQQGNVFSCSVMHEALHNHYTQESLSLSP
light: B1 light
notes: also called Ho Ab S337_10E
For the molecule B5, the Ho/Con_3a is 100 % of control.

B6: GpH7-B3 variant I336_06M/GpL16-k0 (antibody, human IgG1, kappa)
heavy: not shown
light: B1 light
notes: also called Ho Ab I336_06M
In the case of B6, the Ho/Con_3a was 107 % of control.

B7: GpH7-B3 variant S298_14T/GpL16-k0 (antibody, human IgG1, kappa)
heavy: not shown
light: B1 light
notes: also called Ho Ab S298_14T
Consider B7, for which the Ho/Con_3a is 107 % of control.

B8: GpH7-B3 variant T335_16H/GpL16-k0 (antibody, human IgG1, kappa)
heavy: not shown
light: B1 light
notes: also called Ho Ab T335_16H
On to B8, for which the Ho/Con_3a was 99.5 % of control.

B9: GpH7-B3 variant S337_18N/GpL16-k0 (antibody, human IgG1, kappa)
heavy: not shown
light: B1 light
notes: also called Ho Ab S337_18N
With B9, the Ho/Con_3a was 102 % of control.

B10: GpH7-B3 variant T335_13S/GpL16-k0 (antibody, human IgG1, kappa)
heavy: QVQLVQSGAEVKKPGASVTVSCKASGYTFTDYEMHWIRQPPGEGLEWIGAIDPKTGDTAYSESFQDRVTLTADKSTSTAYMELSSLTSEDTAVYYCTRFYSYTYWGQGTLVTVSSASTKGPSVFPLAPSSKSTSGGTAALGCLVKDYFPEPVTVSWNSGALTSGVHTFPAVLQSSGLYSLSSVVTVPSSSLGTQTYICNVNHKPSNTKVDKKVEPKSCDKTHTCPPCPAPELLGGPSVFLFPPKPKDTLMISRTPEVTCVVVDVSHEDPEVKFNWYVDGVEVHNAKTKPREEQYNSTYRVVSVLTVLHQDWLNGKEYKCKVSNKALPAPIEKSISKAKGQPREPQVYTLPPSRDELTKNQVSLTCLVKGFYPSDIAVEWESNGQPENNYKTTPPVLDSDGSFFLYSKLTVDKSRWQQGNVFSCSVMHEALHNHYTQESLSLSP
light: B1 light
notes: also called Ho Ab T335_13S
For the molecule B10, the Ho/Con_3a is 97.6 % of control.

B11: GpH7-B3 variant S337_14T/GpL16-k0 (antibody, human IgG1, kappa)
heavy: not shown
light: B1 light
notes: also called Ho Ab S337_14T
Turning to B11, the Ho/Con_3a was 97.2 % of control.

B12: GpH7-B3 variant T335_07I/GpL16-k0 (antibody, human IgG1, kappa)
heavy: not shown
light: B1 light
notes: also called Ho Ab T335_07I
Regarding B12, the Ho/Con_3a was 107 % of control.

B13: GpH7-B3 variant S337_20W/GpL16-k0 (antibody, human IgG1, kappa)
heavy: not shown
light: B1 light
notes: also called Ho Ab S337_20W
Consider B13, for which the Ho/Con_3a is 87.8 % of control.

B14: GpH7-B3 variant K334_09D/GpL16-k0 (antibody, human IgG1, kappa)
heavy: not shown
light: B1 light
notes: also called Ho Ab K334_09D
B14: the Ho/Con_3a was 150 % of control.

B15: GpH7-B3 variant T335_20W/GpL16-k0 (antibody, human IgG1, kappa)
heavy: not shown
light: B1 light
notes: also called Ho Ab T335_20W
For B15, the Ho/Con_3a is 91.8 % of control.

B16: GpH7-B3 variant I336_08L/GpL16-k0 (antibody, human IgG1, kappa)
heavy: not shown
light: B1 light
notes: also called Ho Ab I336_08L
B16: the Ho/Con_3a was 95.8 % of control.

B17: GpH7-B3 variant T335_10E/GpL16-k0 (antibody, human IgG1, kappa)
heavy: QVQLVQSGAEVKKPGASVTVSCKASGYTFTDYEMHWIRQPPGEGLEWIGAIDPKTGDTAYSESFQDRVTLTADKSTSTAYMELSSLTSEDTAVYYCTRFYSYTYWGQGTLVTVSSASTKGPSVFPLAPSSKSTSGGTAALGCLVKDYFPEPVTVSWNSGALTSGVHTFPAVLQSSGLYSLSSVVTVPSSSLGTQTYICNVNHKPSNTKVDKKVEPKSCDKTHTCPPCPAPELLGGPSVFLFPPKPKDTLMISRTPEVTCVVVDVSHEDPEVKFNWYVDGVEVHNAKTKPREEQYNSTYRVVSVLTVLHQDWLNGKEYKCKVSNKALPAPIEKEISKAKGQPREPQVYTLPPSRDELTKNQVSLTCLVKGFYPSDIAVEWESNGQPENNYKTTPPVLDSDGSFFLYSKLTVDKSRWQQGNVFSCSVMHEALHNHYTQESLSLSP
light: B1 light
notes: also called Ho Ab T335_10E
B17: the Ho/Con_3a was 102 % of control.

B18: GpH7-B3 variant L234_07I/GpL16-k0 (antibody, human IgG1, kappa)
heavy: not shown
light: B1 light
notes: also called Ho Ab L234_07I
Take B18: the Ho/Con_3a was 98.2 % of control.

B19: GpH7-B3 variant T335_19Q/GpL16-k0 (antibody, human IgG1, kappa)
heavy: not shown
light: B1 light
notes: also called Ho Ab T335_19Q
For the molecule B19, the Ho/Con_3a was 97.7 % of control.

B20: GpH7-B3 variant I336_18N/GpL16-k0 (antibody, human IgG1, kappa)
heavy: not shown
light: B1 light
notes: also called Ho Ab I336_18N
For B20, the Ho/Con_3a was 101 % of control.

B21: GpH7-B3 variant I336_02A/GpL16-k0 (antibody, human IgG1, kappa)
heavy: not shown
light: B1 light
notes: also called Ho Ab I336_02A
B21: the Ho/Con_3a is 104 % of control.

B22: GpH7-B3 variant S324_15Y/GpL16-k0 (antibody, human IgG1, kappa)
heavy: not shown
light: B1 light
notes: also called Ho Ab S324_15Y
In the case of B22, the Ho/Con_3a was 100 % of control.

B23: GpH7-B3 variant V266_08L/GpL16-k0 (antibody, human IgG1, kappa)
heavy: not shown
light: B1 light
notes: also called Ho Ab V266_08L
Take B23: the Ho/Con_3a was 90.5 % of control.

B24: GpH7-B3 variant S324_16H/GpL16-k0 (antibody, human IgG1, kappa)
heavy: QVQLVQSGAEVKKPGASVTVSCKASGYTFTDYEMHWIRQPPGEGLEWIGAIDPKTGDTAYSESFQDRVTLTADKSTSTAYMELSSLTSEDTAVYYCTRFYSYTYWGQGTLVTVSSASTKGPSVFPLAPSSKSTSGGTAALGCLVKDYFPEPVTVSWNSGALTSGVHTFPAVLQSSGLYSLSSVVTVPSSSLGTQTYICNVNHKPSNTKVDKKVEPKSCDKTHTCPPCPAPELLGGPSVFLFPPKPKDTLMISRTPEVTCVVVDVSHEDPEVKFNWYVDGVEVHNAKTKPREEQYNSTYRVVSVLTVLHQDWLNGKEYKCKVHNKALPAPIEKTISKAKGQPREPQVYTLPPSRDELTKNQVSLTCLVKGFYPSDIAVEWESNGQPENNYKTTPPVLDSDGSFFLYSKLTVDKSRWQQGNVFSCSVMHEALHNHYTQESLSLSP
light: B1 light
notes: also called Ho Ab S324_16H
Take B24: the Ho/Con_3a was 103 % of control.

B25: GpH7-B3 variant L234_20W/GpL16-k0 (antibody, human IgG1, kappa)
heavy: not shown
light: B1 light
notes: also called Ho Ab L234_20W
As to B25, the Ho/Con_3a is 37.1 % of control.

B26: GpH7-B3 variant L234_04F/GpL16-k0 (antibody, human IgG1, kappa)
heavy: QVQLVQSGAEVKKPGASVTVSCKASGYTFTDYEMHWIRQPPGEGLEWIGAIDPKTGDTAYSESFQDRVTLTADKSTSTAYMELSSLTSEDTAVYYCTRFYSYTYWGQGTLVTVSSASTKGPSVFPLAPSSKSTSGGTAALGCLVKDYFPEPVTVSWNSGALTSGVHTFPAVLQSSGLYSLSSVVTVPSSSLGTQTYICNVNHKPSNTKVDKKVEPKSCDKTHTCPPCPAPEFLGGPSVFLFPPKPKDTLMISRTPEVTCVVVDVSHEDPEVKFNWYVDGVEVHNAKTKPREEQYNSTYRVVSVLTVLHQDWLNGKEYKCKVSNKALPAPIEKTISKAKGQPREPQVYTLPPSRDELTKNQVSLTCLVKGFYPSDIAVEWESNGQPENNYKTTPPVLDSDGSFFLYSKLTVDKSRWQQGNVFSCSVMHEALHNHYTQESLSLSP
light: B1 light
notes: also called Ho Ab L234_04F
Take B26: the Ho/Con_3a was 49.9 % of control.

B27: GpH7-B3 variant I336_03V/GpL16-k0 (antibody, human IgG1, kappa)
heavy: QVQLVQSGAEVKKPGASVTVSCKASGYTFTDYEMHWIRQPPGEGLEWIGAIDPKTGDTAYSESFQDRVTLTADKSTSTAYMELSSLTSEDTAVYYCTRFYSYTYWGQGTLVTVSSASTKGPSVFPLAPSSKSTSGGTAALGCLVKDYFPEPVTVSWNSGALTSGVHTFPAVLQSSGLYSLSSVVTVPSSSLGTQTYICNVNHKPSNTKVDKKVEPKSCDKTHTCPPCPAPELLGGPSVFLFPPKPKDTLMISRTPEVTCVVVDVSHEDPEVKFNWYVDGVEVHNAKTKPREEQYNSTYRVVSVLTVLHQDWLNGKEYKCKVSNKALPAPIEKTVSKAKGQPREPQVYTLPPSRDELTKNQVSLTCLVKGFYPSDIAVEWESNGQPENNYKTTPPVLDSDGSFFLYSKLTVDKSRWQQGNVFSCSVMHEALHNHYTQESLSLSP
light: B1 light
notes: also called Ho Ab I336_03V
For the molecule B27, the Ho/Con_3a was 110 % of control.

B28: GpH7-B3 variant P238_10E/GpL16-k0 (antibody, human IgG1, kappa)
heavy: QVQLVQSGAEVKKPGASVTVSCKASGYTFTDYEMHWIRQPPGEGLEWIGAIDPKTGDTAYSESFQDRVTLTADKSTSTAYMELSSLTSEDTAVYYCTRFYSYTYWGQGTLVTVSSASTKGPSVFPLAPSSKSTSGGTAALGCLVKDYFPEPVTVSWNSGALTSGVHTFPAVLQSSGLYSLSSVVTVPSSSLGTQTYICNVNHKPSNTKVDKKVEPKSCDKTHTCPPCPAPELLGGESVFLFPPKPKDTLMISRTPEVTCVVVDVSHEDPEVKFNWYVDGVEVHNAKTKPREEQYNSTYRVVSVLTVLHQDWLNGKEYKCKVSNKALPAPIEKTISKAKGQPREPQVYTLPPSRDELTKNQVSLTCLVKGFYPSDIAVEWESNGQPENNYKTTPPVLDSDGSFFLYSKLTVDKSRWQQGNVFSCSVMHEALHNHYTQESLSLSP
light: B1 light
notes: also called Ho Ab P238_10E
With B28, the Ho/Con_3a is 0.8 % of control.

B29: GpH7-B3 variant S267_02A/GpL16-k0 (antibody, human IgG1, kappa)
heavy: not shown
light: B1 light
notes: also called Ho Ab S267_02A
Consider B29, for which the Ho/Con_3a is 145 % of control.

B30: GpH7-B3-03-20W/GpL16-k0 (antibody, human IgG1, kappa)
heavy: not shown
light: B1 light
notes: also called Ho Ab G236_20W; GpH7-B3 variant G236_20W/GpL16-k0
In the case of B30, the Ho/Con_3a was 58.3 % of control.

B31: GpH7-B3 variant K326_08L/GpL16-k0 (antibody, human IgG1, kappa)
heavy: not shown
light: B1 light
notes: also called Ho Ab K326_08L
With B31, the Ho/Con_3a was 114 % of control.

B32: GpH7-B3 variant T335_15Y/GpL16-k0 (antibody, human IgG1, kappa)
heavy: not shown
light: B1 light
notes: also called Ho Ab T335_15Y
As to B32, the Ho/Con_3a is 91.5 % of control.

B33: GpH7-B3 variant P238_09D/GpL16-k0 (antibody, human IgG1, kappa)
heavy: not shown
light: B1 light
notes: also called Ho Ab P238_09D
Regarding B33, the Ho/Con_3a was -0.1 % of control.

B34: GpH7-B3 variant K326_07I/GpL16-k0 (antibody, human IgG1, kappa)
heavy: not shown
light: B1 light
notes: also called Ho Ab K326_07I
For the molecule B34, the Ho/Con_3a is 134 % of control.

B35: GpH7-B3 variant S337_09D/GpL16-k0 (antibody, human IgG1, kappa)
heavy: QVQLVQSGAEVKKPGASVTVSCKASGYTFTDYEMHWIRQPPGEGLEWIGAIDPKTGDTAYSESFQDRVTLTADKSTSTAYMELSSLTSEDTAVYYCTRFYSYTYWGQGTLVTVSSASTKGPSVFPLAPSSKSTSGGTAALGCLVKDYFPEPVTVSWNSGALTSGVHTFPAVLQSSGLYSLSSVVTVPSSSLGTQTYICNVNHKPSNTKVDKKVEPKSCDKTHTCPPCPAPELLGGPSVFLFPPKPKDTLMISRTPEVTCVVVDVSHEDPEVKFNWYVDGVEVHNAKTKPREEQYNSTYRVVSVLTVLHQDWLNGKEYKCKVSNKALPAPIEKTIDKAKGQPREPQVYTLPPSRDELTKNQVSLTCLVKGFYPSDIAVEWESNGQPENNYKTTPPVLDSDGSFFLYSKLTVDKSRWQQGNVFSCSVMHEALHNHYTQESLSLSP
light: B1 light
notes: also called Ho Ab S337_09D
For the molecule B35, the Ho/Con_3a was 106 % of control.

B36: GpH7-B3 variant P271_01G/GpL16-k0 (antibody, human IgG1, kappa)
heavy: not shown
light: B1 light
notes: also called Ho Ab P271_01G
B36: the Ho/Con_3a is 88 % of control.

B37: GpH7-B3 variant I332_06M/GpL16-k0 (antibody, human IgG1, kappa)
heavy: not shown
light: B1 light
notes: also called Ho Ab I332_06M
Regarding B37, the Ho/Con_3a is 95.4 % of control.

B38: GpH7-B3-01-15Y/GpL16-k0 (antibody, human IgG1, kappa)
heavy: not shown
light: B1 light
notes: also called Ho Ab L234_15Y; GpH7-B3 variant L234_15Y/GpL16-k0
B38: the Ho/Con_3a is 64.7 % of control.

B39: GpH7-B3 variant Q295_14T/GpL16-k0 (antibody, human IgG1, kappa)
heavy: not shown
light: B1 light
notes: also called Ho Ab Q295_14T
On to B39, for which the Ho/Con_3a was 108 % of control.

B40: GpH7-B3 variant S267_09D/GpL16-k0 (antibody, human IgG1, kappa)
heavy: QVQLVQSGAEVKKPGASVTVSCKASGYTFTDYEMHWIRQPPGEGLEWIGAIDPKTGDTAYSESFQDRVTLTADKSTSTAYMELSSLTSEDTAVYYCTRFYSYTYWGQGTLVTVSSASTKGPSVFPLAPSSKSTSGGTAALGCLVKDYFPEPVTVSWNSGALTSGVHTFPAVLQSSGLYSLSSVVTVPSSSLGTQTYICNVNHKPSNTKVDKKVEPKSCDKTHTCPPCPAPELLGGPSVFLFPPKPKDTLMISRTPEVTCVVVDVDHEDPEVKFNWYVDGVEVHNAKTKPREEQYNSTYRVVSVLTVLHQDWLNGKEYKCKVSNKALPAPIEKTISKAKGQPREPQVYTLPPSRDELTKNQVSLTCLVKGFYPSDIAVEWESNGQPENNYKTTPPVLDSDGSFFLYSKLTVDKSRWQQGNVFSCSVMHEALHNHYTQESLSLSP
light: B1 light
notes: also called Ho Ab S267_09D
In the case of B40, the Ho/Con_3a is 160 % of control.

Source of the values: patent US20180155451A1 (published 2018).
